For assay [1], the target named is human ILT7 (human) (UniProt P59901). Kind of assay: flow cytometry of human PBMCs with APC-labeled antibody at 2.5 µg/ml, histogram gated on BDCA-4+ pDCs (lower row).
Assay [2] shares this target. Kind of assay: flow cytometry dot plot of human PBMCs, BDCA-4 against APC-labeled antibody (upper row); upper left quadrant (BDCA-4+ APC-) 0.36.
Assay [3] has the same target. Briefly: FACS dot plot of human PBMCs, CD304-PE against AF647-labeled antibody (lower left panel); upper left quadrant (CD304+ AF647-) 0.532.

human ILT7 (human), sequence (P59901 24-499): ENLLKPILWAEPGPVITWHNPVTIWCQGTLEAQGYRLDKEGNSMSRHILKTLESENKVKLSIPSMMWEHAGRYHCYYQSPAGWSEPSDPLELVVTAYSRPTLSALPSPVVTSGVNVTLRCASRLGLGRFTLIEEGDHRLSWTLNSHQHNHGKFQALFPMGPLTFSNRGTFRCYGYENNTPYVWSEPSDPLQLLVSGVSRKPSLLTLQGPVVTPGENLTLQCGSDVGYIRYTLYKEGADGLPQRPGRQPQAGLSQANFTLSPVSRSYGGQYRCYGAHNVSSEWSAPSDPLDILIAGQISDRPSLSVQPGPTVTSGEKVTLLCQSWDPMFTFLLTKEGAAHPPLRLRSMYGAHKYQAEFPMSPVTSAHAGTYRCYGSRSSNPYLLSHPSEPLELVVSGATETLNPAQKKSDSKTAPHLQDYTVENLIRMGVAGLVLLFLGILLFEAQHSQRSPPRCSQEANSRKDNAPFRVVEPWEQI

Regarding isotype control R347 (antibody), the percent of pDCs (BDCA-4+ cells) in the APC-positive gate with human ILT7 (human) [1] came out at 0.59%. Moreover, the percent of PBMCs in the BDCA-4+ APC+ quadrant (upper right) in the assay with human ILT7 (human) [2] was 0.000963%. Substance “afucosylated isotype control R347 (antibody)” showed a percent of PBMCs in the CD304+ AF647+ quadrant (upper right) with human ILT7 (human) [3] of 0.0153%.
